Values of other authors, collected in article PMC12818570.

Biological target: His57 (UniProt position 57, ILPVTHTEISP)
Experiment: electrophysiology (solid-supported membrane electrophysiology, SSME, on isolated lysosomes)
Details: 90 mM NaCl + 50 mM NaCl or KCl, 5 mM MgCl2; 30 mM HEPES, 30 mM MES, titrated with HCl or NaOH; channel in lysosomal membrane, pH equilibrated symmetrically on both sides, no applied voltage

In the case of “Transmembrane protein 175 (TMEM175), endosomal/lysosomal cation channel (Homo sapiens)”, the pKa is listed as 7.0 ± 0.1.
